Measurements taken from patent US20240076386A1 (Pfizer, published 2024).

Experiments:
[1] = target: T1, recombinant histidine-tagged cynomolgus monkey E-selectin (Sino Biologicals; 190169-C08H) (cynomolgus monkey, UniProt A0A2K5U7H9 22-554); test: neutralization of sialyl Lewis A ligand binding, soluble recombinant protein, competition ELISA
T1 construct: also called recombinant cynomolgus monkey E-selectin
T1 sequence: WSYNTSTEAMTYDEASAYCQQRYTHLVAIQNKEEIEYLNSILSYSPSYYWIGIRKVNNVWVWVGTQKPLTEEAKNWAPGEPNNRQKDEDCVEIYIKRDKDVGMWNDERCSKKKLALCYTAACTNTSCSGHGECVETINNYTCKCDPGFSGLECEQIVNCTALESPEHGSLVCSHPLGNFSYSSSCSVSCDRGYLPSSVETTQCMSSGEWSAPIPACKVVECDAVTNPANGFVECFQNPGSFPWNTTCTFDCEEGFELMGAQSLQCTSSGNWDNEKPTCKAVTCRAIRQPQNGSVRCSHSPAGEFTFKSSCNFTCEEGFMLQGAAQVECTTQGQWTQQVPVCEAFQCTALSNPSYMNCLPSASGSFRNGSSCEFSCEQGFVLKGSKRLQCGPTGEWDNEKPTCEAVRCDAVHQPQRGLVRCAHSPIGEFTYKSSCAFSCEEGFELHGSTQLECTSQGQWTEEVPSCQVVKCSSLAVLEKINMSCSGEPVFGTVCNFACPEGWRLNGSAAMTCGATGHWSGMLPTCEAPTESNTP
Description: (§1) Recombinant histidine-tagged E-selectin; cynomolgus monkey E-selectin (Sino Biologicals; 190169-C08H) and human E-selectin (Sino Biologicals; 13025-H08H) stock solutions were prepared to a final concentration of 3 μg/mL in phosphate buffered saline (PBS) without calcium and magnesium. One hundred μL per well of the diluted recombinant E-selectin protein was added into a Ni-NTA HisSorb 96 well plate (Qiagen, 35061) and plates were incubated on an orbital shaker at room temperature for 2 hours. Sialyl Lewis A polyacrylamide biotin, a synthetic E-selectin ligand (GlycoTech corporation 01-044), was conjugated to streptavidin HRP (horse radish peroxidase) (Ultra Streptavidin HRP, Thermo Scientific N504) and diluted in assay diluent containing 2 mM calcium chloride (BD OptEIA buffer; BD Biosciences, 555213).

[2] = target: T2, recombinant histidine-tagged human E-selectin (Sino Biologicals; 13025-H08H) (human, UniProt P16581 22-556); test: as above
T2 construct: also called recombinant human E-selectin; soluble recombinant human E-selectin
T2 sequence (looked up): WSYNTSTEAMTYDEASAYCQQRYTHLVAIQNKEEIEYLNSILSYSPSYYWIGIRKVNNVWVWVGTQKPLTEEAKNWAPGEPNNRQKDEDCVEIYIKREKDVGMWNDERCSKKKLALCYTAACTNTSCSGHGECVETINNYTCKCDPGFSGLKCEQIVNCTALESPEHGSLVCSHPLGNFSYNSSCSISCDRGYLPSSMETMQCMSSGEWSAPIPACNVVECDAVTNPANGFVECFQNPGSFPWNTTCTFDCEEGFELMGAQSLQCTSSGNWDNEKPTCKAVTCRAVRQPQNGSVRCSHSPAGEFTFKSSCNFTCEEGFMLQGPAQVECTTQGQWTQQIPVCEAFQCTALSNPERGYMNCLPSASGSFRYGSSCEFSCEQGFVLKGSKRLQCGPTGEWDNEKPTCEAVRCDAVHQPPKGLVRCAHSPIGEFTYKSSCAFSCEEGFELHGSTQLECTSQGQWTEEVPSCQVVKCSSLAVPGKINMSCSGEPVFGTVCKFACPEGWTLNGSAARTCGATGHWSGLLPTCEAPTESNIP
Description: as §1

[3] = target: T3, human E-selectin, cell-surface expressed (human, UniProt P16581 22-610); test: cell-based or functional assay
T3 sequence: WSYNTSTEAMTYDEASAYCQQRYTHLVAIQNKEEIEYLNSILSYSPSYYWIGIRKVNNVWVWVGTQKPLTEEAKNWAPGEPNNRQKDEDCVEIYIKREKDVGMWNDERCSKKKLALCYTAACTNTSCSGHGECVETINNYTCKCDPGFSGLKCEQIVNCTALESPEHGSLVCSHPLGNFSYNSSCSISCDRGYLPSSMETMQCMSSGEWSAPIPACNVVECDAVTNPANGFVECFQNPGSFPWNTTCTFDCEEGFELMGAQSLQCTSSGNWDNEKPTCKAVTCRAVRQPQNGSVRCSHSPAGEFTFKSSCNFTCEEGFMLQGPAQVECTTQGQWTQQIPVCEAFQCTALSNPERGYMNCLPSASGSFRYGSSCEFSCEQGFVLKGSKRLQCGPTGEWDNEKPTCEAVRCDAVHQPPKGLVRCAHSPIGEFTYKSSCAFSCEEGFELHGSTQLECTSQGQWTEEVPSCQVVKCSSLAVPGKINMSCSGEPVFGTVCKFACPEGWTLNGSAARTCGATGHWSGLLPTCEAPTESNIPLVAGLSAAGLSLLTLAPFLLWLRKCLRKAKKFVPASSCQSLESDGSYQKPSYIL

[4] = target: T2, recombinant histidine-tagged human …; test: cell-based or functional assay
[5] = target: T4, cynomolgus monkey E-selectin, cell-surface expressed (cynomolgus monkey, UniProt P16581 22-610 (human entry)); test: cell-based or functional assay
T4 chain: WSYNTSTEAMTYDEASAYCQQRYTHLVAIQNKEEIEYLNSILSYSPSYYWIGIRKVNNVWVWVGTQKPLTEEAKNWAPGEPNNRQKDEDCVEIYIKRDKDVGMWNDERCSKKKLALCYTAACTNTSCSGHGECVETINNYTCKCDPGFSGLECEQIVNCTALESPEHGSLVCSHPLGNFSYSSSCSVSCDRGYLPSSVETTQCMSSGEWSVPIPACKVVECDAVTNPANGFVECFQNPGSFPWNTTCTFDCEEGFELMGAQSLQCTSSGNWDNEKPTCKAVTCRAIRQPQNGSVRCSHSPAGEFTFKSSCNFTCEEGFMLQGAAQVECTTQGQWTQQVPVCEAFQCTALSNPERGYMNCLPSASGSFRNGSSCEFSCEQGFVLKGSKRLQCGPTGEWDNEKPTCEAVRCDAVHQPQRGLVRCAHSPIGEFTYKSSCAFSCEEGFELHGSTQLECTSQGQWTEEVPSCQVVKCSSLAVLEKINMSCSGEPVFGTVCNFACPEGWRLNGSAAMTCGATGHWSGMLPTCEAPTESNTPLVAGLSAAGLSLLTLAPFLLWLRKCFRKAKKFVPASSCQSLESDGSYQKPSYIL

B1: optimized anti-E-selectin antibody 1444 (antibody, human IgG1, kappa, V domains shown)
VH: EVQLVESGGGLVQPGGSLRLSCAASGYAIRSAYMHWVRQAPGKGLEWVARIDPANGNTIYVDSVTGRFTISADNAKNSAYLQMNSLRAEDTAVYYCAMDLYSTSEYWGQGTLVTVSS
VL: DIQMTQSPSSLSASVGDRVTITCKTSQNIERYLNWYQQKPGKAPKLLIYAASSLQSGVPSRFSGSGSGTDFTLTISSLQPEDFATYFCLQDNAWPLTFGQGTKVEIKR
notes: effector-null human IgG1, kappa
IC50 [1]: 2.39 to 2.91 nM
IC50 [2]: 2.87 to 3.01 nM
Flow adhesion neutralization of HL-60 cells, CHO cells, human E-selectin, IC50 [3]: 4.25 to 4.56 nM
Neutralization of Human Neutrophils, CHO cells, human E-selectin, flow, IC50 [3]: 2.87 to 4.65 nM
Static adhesion neutralization of HL-60 cells, CHO cells, human E-selectin, IC50 [3]: 3.36 to 4.7 nM
Flow adhesion neutralization of HL-60 cells, soluble recombinant human E-selectin, IC50 [4]: 13.3 to 15.9 nM
Neutralization of SCD patient cells, soluble human recombinant protein, flow, IC50 (mean) [4]: 12.4 nM
Flow adhesion neutralization of HL-60 cells, CHO cells, cynomolgus monkey E-selectin, IC50 [5]: 4.32 to 4.35 nM
Neutralization of Human Neutrophils, CHO cells, cynomolgus E-selectin, flow, IC50 [5]: 9.45 to 16.3 nM
Static adhesion neutralization of HL-60 cells, CHO cells, cynomolgus monkey E-selectin, IC50 [5]: 3.84 nM
